Laboratory results reported in patent publication US20220275049A1 (AGENUS, published 2022).
Square brackets hold non-standard residues; d marks the D form. Ends that are not written are not given here. pY = N[C@@H](Cc1ccc(OP(=O)(O)O)cc1)C(=O)O; pT = C[C@@H](OP(=O)(O)O)[C@H](N)C(=O)O; pS = N[C@@H](COP(=O)(O)O)C(=O)O

Legend:
Experiment in all cases: AlphaScreen, peptide titrated on biotinylated HLA + b2m
[1] = biological target: T1, biotinylated HLA-B*07:02 with β2m (human, biotinylated)
T1 construct: also called B*07:02 (as the text prints it)
Procedure: (§1) An AlphaScreen® assay was used to evaluate the binding of peptides to HLA molecules. Donor beads conjugated with streptavidin, and acceptor beads conjugated with the anti-human HLA class I antibody W6/32, were used to assess peptide binding. Biotinylated HLAs (A*02:01, B*07:02, C*07:01, or C*07:02) were mixed with a fixed excess of β2m and the mixtures added to each well of a 384-well microplate. Serial dilutions of the synthesized phosphopeptides were added to the wells, and the resultant HLA/β2/peptide mixtures were incubated overnight at 18° C. W6/32 conjugated acceptor beads were subsequently added to the wells, and the mixture was incubated for 1 hour at 21° C. Streptavidin conjugated donor beads were then added to the wells, and the mixture was incubated for a further 1 hour at 21° C.
(§2) The microplate was read using the PerkinElmer® plate reader, and data were plotted using the Michaelis-Menten equation to determine the Kd for each phosphopeptide.

[2] = biological target: T2, biotinylated HLA-A*02:01 with β2m (human, biotinylated)
T2 construct: HLA heavy chain mixed with excess β2m; the peptide is titrated onto it
Procedure: as §1, §2

[3] = biological target: biotinylated HLA-C*07:02 with β2m (human, biotinylated)
Procedure: as §1, §2

[4] = biological target: biotinylated HLA-C*07:01 with β2m (human, biotinylated)
Procedure: as §1, §2

Row | Binder | binding result [1] | Kd [2] | Kd [1] | also measured
1 | KIK[pS]FEVVF [KIKsFEVVF] | no binding |  |  | 
2 | RLL[pS]FQRYL [RLLsFQRYL] | no binding | 49.7 nM |  | 
3 | SPFKRQL[pS]L [SPFKRQLsL] |  |  | 64.7 nM | 
4 | FRR[pS]PTKSSLDY [FRRsPTKSSLDY] |  |  |  | Kd [3]: 98.6 nM
5 | SLF[pS]SEESNL [SLFsSEESNL] | no binding | 466 nM |  | binding result [4]: no binding; binding result [3]: no binding
6 | SLQ[pS]LETSV [SLQsLETSV] | no binding | 121 nM |  | binding result [4]: no binding; binding result [3]: no binding
7 | AVRPTRL[pS]L [AVRPTRLsL] |  |  | 117 nM | binding result [2]: no binding
8 | SIM[pS]PEIQL [SIMsPEIQL] | no binding | 84 nM |  | 
9 | LPA[pS]PRARL [LPAsPRARL] |  |  | 83.5 nM | 
10 | RRF[pS]GTAVY [RRFsGTAVY] | no binding |  |  | Kd [4]: 2180 nM; Kd [3]: 16.7 nM
11 | RPY[pS]PPFFSL [RPYsPPFFSL] |  |  | 157 nM | 
12 | SVKPRRT[pS]L [SVKPRRTsL] |  |  |  | binding result [2]: no binding; binding result [4]: no binding; binding result [3]: no binding
13 | RPRPV[pS]PSSLL [RPRPVsPSSLL] |  |  | 186 nM | 
14 | RPRIP[pS]PIGF [RPRIPsPIGF] |  |  | 84.4 nM | binding result [2]: no binding
15 | RLL[pS]AAENFL-OH (N-terminus assumed; SMILES CC(C)C[C@H](NC(=O)[C@H](Cc1ccccc1)NC(=O)[C@H](CC(N)=O)NC(=O)[C@H](CCC(=O)O)NC(=O)[C@H](C)NC(=O)[C@H](C)NC(=O)[C@H](COP(=O)(O)O)NC(=O)[C@H](CC(C)C)NC(=O)[C@H](CC(C)C)NC(=O)[C@@H](N)CCCNC(=N)N)C(=O)O) [RLLsAAENFL] |  | 114 nM |  | 
16 | RPR[pS]PTGPSNSFL [RPRsPTGPSNSFL] |  |  | 360 nM | binding result [2]: no binding
17 | LPRPA[pS]PAL [LPRPAsPAL] |  |  | 223 nM | binding result [2]: no binding
18 | SMS[pS]LSREV [SMSsLSREV] | no binding | 927 nM |  | binding result [4]: no binding; binding result [3]: no binding
19 | KRF[pS]GTVRL [KRFsGTVRL] | no binding |  |  | 
20 | RRP[pS]LLSEF [RRPsLLSEF] |  |  |  | Kd [4]: 804 nM; Kd [3]: 35.7 nM
21 | RIYQ[pY]IQSRF [RIYQyIQSRF] |  |  |  | Kd [4]: 477 nM; Kd [3]: 377 nM
22 | SISS[pT]PPAV [SISStPPAV] | no binding | 169 nM |  | binding result [4]: no binding; binding result [3]: no binding

Row | Binder | binding result [1] | Kd [2] | Kd [1] | also measured
23 | SLHDIQL[pS]L [SLHDIQLsL] |  | 31.9 nM | 642 nM | Kd [4]: 962 nM; Kd [3]: 413 nM
24 | RRI[pS]DPQVF [RRIsDPQVF] | no binding |  |  | Kd [4]: 11.4 nM; Kd [3]: 19.9 nM
25 | [pY]LQSRYYRA [yLQSRYYRA] |  | 255 nM |  | binding result [4]: no binding
26 | SLF[pS]SEESNLGA [SLFsSEESNLGA] | no binding | 149 nM |  | binding result [4]: no binding; binding result [3]: no binding
27 | SLF[pS]GDEENA [SLFsGDEENA] | no binding | 278 nM |  | binding result [4]: no binding; binding result [3]: no binding
28 | RRL[pS]FLVSY [RRLsFLVSY] |  |  |  | Kd [4]: 1570 nM; Kd [3]: 113 nM
29 | VLFS[pS]PPQM [VLFSsPPQM] | no binding | 227 nM |  | binding result [3]: no binding
30 | TVF[pS]PTLPAA [TVFsPTLPAA] | no binding | 46.9 nM |  | binding result [4]: no binding; binding result [3]: no binding
31 | YRY[pS]PQSFL [YRYsPQSFL] | no binding |  |  | binding result [2]: no binding
32 | RPF[pS]PREAL [RPFsPREAL] |  |  | 163 nM | 
33 | RPAFF[pS]PSL [RPAFFsPSL] |  |  | 398 nM | binding result [2]: no binding
34 | RLS[pS]PLHFV [RLSsPLHFV] |  | 90.6 nM |  | 
35 | RPK[pT]PPVVI [RPKtPPVVI] |  |  |  | binding result [2]: no binding
36 | RPDVAKRL[pS]L [RPDVAKRLsL] |  |  | 216 nM | 
37 | SLF[pS]PQNTL [SLFsPQNTL] |  | 116 nM |  | 
38 | SPA[pS]PKISL [SPAsPKISL] |  |  | 275 nM | 
39 | RIYQ[pY]IQSR [RIYQyIQSR] |  |  |  | binding result [2]: no binding
40 | RRS[pS]FLQVF [RRSsFLQVF] | no binding |  |  | Kd [3]: 19 nM
41 | RRG[pS]FEVTL [RRGsFEVTL] | no binding |  |  | Kd [4]: 16.6 nM; Kd [3]: 15.9 nM
42 | RPR[pS]ISVEEF [RPRsISVEEF] |  |  | 86.1 nM | 
43 | SIS[pS]MEVNV [SISsMEVNV] | no binding | 306 nM |  | binding result [4]: no binding; binding result [3]: no binding
